Test results: USRE49477 (THOMAS JEFFERSON UNIVERSITY, dated 2023)

How the values were obtained:
[1] = molecular target: T1, human procollagen I α2 chain (human, UniProt P08123 23-1366); assay: Western blot, procollagen I chains on membrane, anti-FLAG-HRP detection
T1 construct: The separated chain as it stood on the Western blot membrane; With the chimeric IgG, a partially degraded form was also positive; also called Pro-α2; collagen α2-chain

[2] = molecular target: T1, human procollagen I α2 chain; assay: Western blot, procollagen I chains on membrane, anti-His-HRP detection
[3] = molecular target: T1, human procollagen I α2 chain; assay: Western blot, procollagen I chains on membrane, anti-human γ-HRP detection

T1 sequence (P08123 23-1366 limits assumed): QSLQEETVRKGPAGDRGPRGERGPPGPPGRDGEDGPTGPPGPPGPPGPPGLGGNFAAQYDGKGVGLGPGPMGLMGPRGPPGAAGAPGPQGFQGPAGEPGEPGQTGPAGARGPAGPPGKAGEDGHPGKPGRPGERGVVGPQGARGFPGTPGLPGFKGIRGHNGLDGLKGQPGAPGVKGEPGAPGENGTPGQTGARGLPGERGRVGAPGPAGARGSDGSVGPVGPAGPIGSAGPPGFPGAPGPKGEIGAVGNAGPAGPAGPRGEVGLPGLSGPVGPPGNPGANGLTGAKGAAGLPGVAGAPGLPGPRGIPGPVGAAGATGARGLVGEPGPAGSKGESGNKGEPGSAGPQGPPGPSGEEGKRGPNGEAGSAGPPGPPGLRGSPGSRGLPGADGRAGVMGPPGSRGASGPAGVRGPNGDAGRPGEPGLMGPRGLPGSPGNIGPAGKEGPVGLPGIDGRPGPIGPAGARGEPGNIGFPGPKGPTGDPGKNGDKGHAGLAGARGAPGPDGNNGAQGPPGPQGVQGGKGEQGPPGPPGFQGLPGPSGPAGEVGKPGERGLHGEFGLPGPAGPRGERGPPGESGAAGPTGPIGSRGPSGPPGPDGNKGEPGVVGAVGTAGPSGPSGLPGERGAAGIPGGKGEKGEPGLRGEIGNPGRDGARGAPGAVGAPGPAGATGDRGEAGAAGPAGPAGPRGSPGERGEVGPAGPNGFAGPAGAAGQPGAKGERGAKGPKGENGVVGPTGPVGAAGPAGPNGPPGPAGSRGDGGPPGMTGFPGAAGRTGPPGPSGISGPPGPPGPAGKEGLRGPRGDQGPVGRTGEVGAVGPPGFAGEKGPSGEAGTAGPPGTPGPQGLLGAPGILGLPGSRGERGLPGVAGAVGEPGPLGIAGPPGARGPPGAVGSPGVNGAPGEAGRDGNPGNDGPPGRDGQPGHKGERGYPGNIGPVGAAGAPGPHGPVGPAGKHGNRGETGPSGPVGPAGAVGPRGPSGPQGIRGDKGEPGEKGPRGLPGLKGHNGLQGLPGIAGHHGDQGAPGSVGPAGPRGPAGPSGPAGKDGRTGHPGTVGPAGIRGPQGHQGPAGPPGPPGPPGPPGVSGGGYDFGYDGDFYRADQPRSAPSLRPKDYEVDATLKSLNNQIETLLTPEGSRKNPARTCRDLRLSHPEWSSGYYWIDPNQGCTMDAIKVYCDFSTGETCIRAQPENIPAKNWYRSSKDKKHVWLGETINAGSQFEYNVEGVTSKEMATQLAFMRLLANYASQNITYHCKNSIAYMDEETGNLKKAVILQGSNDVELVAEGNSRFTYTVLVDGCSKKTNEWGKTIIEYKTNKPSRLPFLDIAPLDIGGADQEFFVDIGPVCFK

B1: bacterial-derived scFv variant (anti-α2Ct single chain antibody, FLAG-tagged) (scFv)
scFv: MDIVMSQSPSSLAVSAGEKVTMSCKSSQSLLNSRTRKNNLAWYQQKPGQSPKLLIYWASTRESGVPDRFTGSGSGTDFTLTISSVQAEDLAVYYCKQSYNLWTFGGGTKLEIKVDGGGGSGGGGSGGGGSLEQIQLVQSGPELKKPGETVKISCKASGYTFTDYPLHWVKQAPGKGLQWMAWINTETGEPTYADDFTGRFAFSLETSASTAYLQINNLKNEDTATYFCVRGYYYYWGQGTTLSVSSDYKDDDDK
- binding result [1]: binds

B2: His-tagged yeast-derived A_L_K scFv variant (scFv)
scFv: QIQLVQSGPELKKPGETVKISCKASGYTFTDYPLHWVKQAPGKGLQWMAWINTETGEPTYADDFTGRFAFSLETSASTAYLQINNLKNEDTATYFCVRGYYYYWGQGTTLSVSSGGGGSGGGGSGGGGSGGGGSGGGGSGGGGSDIVMSQSPSSLAVSAGEKVTMSCKSSQSLLNSRTRKNNLAWYQQKPGQSPKLLIYWASTRESGVPDRFTGSGSGTDFTLTISSVQAEDLAVYYCKQSYNLWTFGGGTKLEIKRHHHHHH
notes: It was secreted from yeast using pPIC-9K; also called yeast scFv variant
- binding result [2]: binds

B3: mouse-human chimeric IgG consisting of the mVH-hγ and mVL-hκ chains (antibody, V domains shown)
VH: QIQLVQSGPELKKPGETVKISCKASGYTFTDYPLHWVKQAPGKGLQWMAWINTETGEPTYADDFTGRFAFSLETSASTAYLQINNLKNEDTATYFCVRGYYYYWGQGTTLSVSS
VL: DIVMSQSPSSLAVSAGEKVTMSCKSSQSLLNSRTRKNNLAWYQQKPGQSPKLLIYWASTRESGVPDRFTGSGSGTDFTLTISSVQAEDLAVYYCKQSYNLWTFGGGTKLEIKR
notes: The constant regions are human IgG1 γ (pFUSE-CHIg-hG1) and human κ (pFUSE2-CLIg-hk); The antibody was expressed in CHO cells and purified on Protein-L; also called chimeric antibody; CHO-IgG
- binding result [3]: binds
